Assay results taken from PMC8131929 (The Journal of Biological Chemistry, 2021).

Target: RanQ69L(aa1-180)–GTP (UniProt P62826 1-180, Q69L)
Test: pull-down

B1: His–Xpo 4 (exportin 4, Mus musculus) (natural protein)
chain: not shown
  binding result: binds
